The experiment deals with peptide probe (designed thiol-sensitive probe mimicking the substrate of the main protease). As to the kind of experiment: SPR. For orientation: SPR reads the build-up and loss of mass on a sensor chip optically.

In the case of “main protease of SARS-Cov-2 (from UniProt P0DTD1) (enzyme)”, the koff was found to be 0.182 s⁻¹ and the on-rate (kon) is 1.03e+08 M⁻¹ s⁻¹.

Usually koff stands for the first-order rate constant of dissociation. Read a high koff as a short-lived complex. By kon is commonly meant the second-order rate constant of association. A high value points to faster complex formation.

Values taken from publication PMC8383480.
